{"source": "paper PMC2805770", "conditions": "phosphorylation at S656"}
{"substance": "synapsin-I: S656A", "values": [{"measurement": "localisation_or_trafficking", "result": "changes"}]}
